Results: patent publication US20220267452A1 (Chugai, published 2022)

B1: FGA0007 bivalent Ab (FGA0007VH-F760mnN17/FGA0007VL-k0MTC) (antibody, human IgG1, kappa, N297A, V domains shown)
VH: QSVEESGGRLVTPGTPLTLTCTVSGFSLSSYPMSWVRQAPGKGLEWIGIISSSGRTYYASWAKGRFTISKASSTTAALKMTSLTTEDTATYFCARGGVYKYDDYGDYVLNLWGRGTLVTVSS
VL: AIEMTQTPFSVSAAVGGTVTINCQASENIYSNLAWYQQKPGQPPKLLIYAASYLASGVPSRFKGSGSGTDYTLTISGVQCADAATYYCQCTLYSSTYGVAFGGGTEVVVKR
notes: Rabbit-human chimeric bivalent (monospecific) antibody, expressed in Expi293 cells; also called monospecific antibody FGA0007
B2: FGA0005/CD3-TRAB (FGA0005VH-F760mnN17/FGA0005VL-k0MTC//TR01H113-F760mnP17/L0011-k0) (bispecific antibody, human IgG1, kappa, N297A)
heavy 1: QSLEESGGRLVTPGTPLTLTCTASGFSLSTYWICWVRQAPGEGLEWIGYISSSGNTYYASWAKGRFTISKTSSTTVDLKMTSLTTEDTATYFCGGHNSDYITGWALDPWGPGTLVTVSSASTKGPSVFPLAPSSKSTSGGTAALGCLVKDYFPEPVTVSWNSGALTSGVHTFPAVLQSSGLYSLSSVVTVPSSSLGTQTYICNVNHKPSNTKVDKKVEPKSCDKTHTCPPCPAPELRGGPKVFLFPPKPKDTLMISRTPEVTCVVVDVSHEDPEVKFNWYVDGVEVHNAKTKPREEQYASTYRVVSVLTVLHQDWLNGKEYKCKVSNKALPAPIEKTISKAKGQPREPQVYTLPPSREEMTKNQVSLTCLVKGFYPSDIAVEWESNGQPENNYKTTPPYLDSDGSFFLYSKLTVDKSRWQQGNVFSCSVMHEALHNHYTQESLSLSP
light 1: AAVLTQTASPMSAAVGGTVTINCQSSKSVYRDKWLSWFQQKPGQPPKLLIYGASNLASGVSSRFKGSGSGTQFTLTISDVQCDDAATYYCLGGYSDNSEDAFGGGTEVVVKRTVAAPSVFIFPPSDEQLKSGTASVVCLLNNFYPREAKVQWKVDNALQSGNSQESVTEQDSKDCTYSLSSTLTLSKADYEKHKVYACEVTHQGLSSPVTKSFNRGEC
heavy 2: QVQLVESGGGVVQPGGSLRLSCAASGFTFSNAWMHWVRQAPGKGLEWVAQIKDKSQNYATYVAESVKGRFTISRADSKNSIYLQMNSLKTEDTAVYYCRYVHYAAGYGVDIWGQGTTVTVSSASTKGPSVFPLAPSSKSTSGGTAALGCLVKDYFPEPVTVSWNSGALTSGVHTFPAVLQSSGLYSLSSVVTVPSSSLGTQTYICNVNHKPSNTKVDKKVEPKSCDKTHTCPPCPAPELRGGPKVFLFPPKPKDTLMISRTPEVTCVVVDVSHEDPEVKFNWYVDGVEVHNAKTKPREEQYASTYRVVSVLTVLHQDWLNGKEYKCKVSNKALPAPIEKTISKAKGQPREPQVYTLPPSRKEMTKNQVSLTCLVKGFYPSDIAVEWESNGQPENNYKTTPPYLDSDGSFFLYSKLTVDKSRWQQGNVFSCSVMHEALHNHYTQKSLSLSP
light 2: DIVMTQSPLSLPVTPGEPASISCRSSQPLVHSNRNTYLHWYQQKPGQAPRLLIYKVSNRFSGVPDRFSGSGSGTDFTLKISRVEAEDVGVYYCGQGTQVPYTFGQGTKLEIKRTVAAPSVFIFPPSDEQLKSGTASVVCLLNNFYPREAKVQWKVDNALQSGNSQESVTEQDSKDSTYSLSSTLTLSKADYEKHKVYACEVTHQGLSSPVTKSFNRGEC
notes: Made by Fab-arm exchange (2-MEA) of the bivalent FGA0005 antibody and the anti-CD3 antibody; also called bispecific antibody FGA0005/CD3-TRAB
B3: FGA0007/CD3-TRAB (FGA0007VH-F760mnN17/FGA0007VL-k0MTC//TR01H113-F760mnP17/L0011-k0) (bispecific antibody, human IgG1, kappa, N297A)
heavy 1: QSVEESGGRLVTPGTPLTLTCTVSGFSLSSYPMSWVRQAPGKGLEWIGIISSSGRTYYASWAKGRFTISKASSTTAALKMTSLTTEDTATYFCARGGVYKYDDYGDYVLNLWGRGTLVTVSSASTKGPSVFPLAPSSKSTSGGTAALGCLVKDYFPEPVTVSWNSGALTSGVHTFPAVLQSSGLYSLSSVVTVPSSSLGTQTYICNVNHKPSNTKVDKKVEPKSCDKTHTCPPCPAPELRGGPKVFLFPPKPKDTLMISRTPEVTCVVVDVSHEDPEVKFNWYVDGVEVHNAKTKPREEQYASTYRVVSVLTVLHQDWLNGKEYKCKVSNKALPAPIEKTISKAKGQPREPQVYTLPPSREEMTKNQVSLTCLVKGFYPSDIAVEWESNGQPENNYKTTPPYLDSDGSFFLYSKLTVDKSRWQQGNVFSCSVMHEALHNHYTQESLSLSP
light 1: AIEMTQTPFSVSAAVGGTVTINCQASENIYSNLAWYQQKPGQPPKLLIYAASYLASGVPSRFKGSGSGTDYTLTISGVQCADAATYYCQCTLYSSTYGVAFGGGTEVVVKRTVAAPSVFIFPPSDEQLKSGTASVVCLLNNFYPREAKVQWKVDNALQSGNSQESVTEQDSKDCTYSLSSTLTLSKADYEKHKVYACEVTHQGLSSPVTKSFNRGEC
heavy 2: QVQLVESGGGVVQPGGSLRLSCAASGFTFSNAWMHWVRQAPGKGLEWVAQIKDKSQNYATYVAESVKGRFTISRADSKNSIYLQMNSLKTEDTAVYYCRYVHYAAGYGVDIWGQGTTVTVSSASTKGPSVFPLAPSSKSTSGGTAALGCLVKDYFPEPVTVSWNSGALTSGVHTFPAVLQSSGLYSLSSVVTVPSSSLGTQTYICNVNHKPSNTKVDKKVEPKSCDKTHTCPPCPAPELRGGPKVFLFPPKPKDTLMISRTPEVTCVVVDVSHEDPEVKFNWYVDGVEVHNAKTKPREEQYASTYRVVSVLTVLHQDWLNGKEYKCKVSNKALPAPIEKTISKAKGQPREPQVYTLPPSRKEMTKNQVSLTCLVKGFYPSDIAVEWESNGQPENNYKTTPPYLDSDGSFFLYSKLTVDKSRWQQGNVFSCSVMHEALHNHYTQKSLSLSP
light 2: DIVMTQSPLSLPVTPGEPASISCRSSQPLVHSNRNTYLHWYQQKPGQAPRLLIYKVSNRFSGVPDRFSGSGSGTDFTLKISRVEAEDVGVYYCGQGTQVPYTFGQGTKLEIKRTVAAPSVFIFPPSDEQLKSGTASVVCLLNNFYPREAKVQWKVDNALQSGNSQESVTEQDSKDSTYSLSSTLTLSKADYEKHKVYACEVTHQGLSSPVTKSFNRGEC
notes: Made by Fab-arm exchange (2-MEA); also called bispecific antibody FGA0007/CD3-TRAB
B4: FGA0005 bivalent Ab (FGA0005VH-F760mnN17/FGA0005VL-k0MTC) (antibody, human IgG1, kappa, N297A, V domains shown)
VH: QSLEESGGRLVTPGTPLTLTCTASGFSLSTYWICWVRQAPGEGLEWIGYISSSGNTYYASWAKGRFTISKTSSTTVDLKMTSLTTEDTATYFCGGHNSDYITGWALDPWGPGTLVTVSS
VL: AAVLTQTASPMSAAVGGTVTINCQSSKSVYRDKWLSWFQQKPGQPPKLLIYGASNLASGVSSRFKGSGSGTQFTLTISDVQCDDAATYYCLGGYSDNSEDAFGGGTEVVVKR
notes: Rabbit-human chimeric bivalent (monospecific) antibody, expressed in Expi293 cells; also called monospecific antibody FGA0005

What follows are binders tested against T1, wild-type human FGFR3 (hFGFR3 protein, SEQ ID NO: 1) (human, UniProt P22607 23-804) (assay: flow cytometry on hFGFR3/CHO DXB11s cells).
T1 construct: Full-length cDNA expressed in CHO DXB11s cells; The construct used in PC10/FGFR3 WT cells is not described; also called FGFR3 WT; wild-type hFGFR3
T1 sequence (P22607 other isoform, or with tags, fused parts or gaps): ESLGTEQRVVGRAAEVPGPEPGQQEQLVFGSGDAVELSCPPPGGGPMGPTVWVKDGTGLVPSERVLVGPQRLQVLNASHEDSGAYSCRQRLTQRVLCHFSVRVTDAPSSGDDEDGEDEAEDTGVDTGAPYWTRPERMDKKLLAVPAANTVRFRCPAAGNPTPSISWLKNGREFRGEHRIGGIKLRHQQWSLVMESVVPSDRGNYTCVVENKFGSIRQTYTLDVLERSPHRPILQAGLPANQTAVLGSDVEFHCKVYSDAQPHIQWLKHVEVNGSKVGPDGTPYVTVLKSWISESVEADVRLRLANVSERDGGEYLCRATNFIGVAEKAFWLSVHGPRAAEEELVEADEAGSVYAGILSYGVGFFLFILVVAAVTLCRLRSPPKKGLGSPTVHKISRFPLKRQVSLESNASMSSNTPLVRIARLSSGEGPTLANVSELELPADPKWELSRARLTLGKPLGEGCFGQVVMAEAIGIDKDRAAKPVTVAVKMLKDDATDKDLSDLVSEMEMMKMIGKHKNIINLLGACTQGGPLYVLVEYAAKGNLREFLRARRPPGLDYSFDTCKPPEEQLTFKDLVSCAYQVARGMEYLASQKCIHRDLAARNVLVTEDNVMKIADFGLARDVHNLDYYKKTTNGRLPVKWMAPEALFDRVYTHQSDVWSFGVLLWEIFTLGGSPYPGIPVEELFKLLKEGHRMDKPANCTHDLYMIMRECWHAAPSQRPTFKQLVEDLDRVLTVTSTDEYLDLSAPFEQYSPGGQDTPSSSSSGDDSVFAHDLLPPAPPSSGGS
Method: The binding activity of monospecific antibodies FGA0005 and FGA0007 and bispecific antibodies FGA0005/CD3-TRAB and FGA0007/CD3-TRAB against wild-type hFGFR3 or hFGFR3 S249C mutant on the cell surface of hFGFR3/CHO DXB11s cells and hFGFR3 S249C/CHO DXB11s cells prepared by the method described in Example 1 and parent strain CHO DXB11s cells was measured using flow cytometry.
After 9×10⁶ cells of each cell line were washed with FACS/PBS supplemented with 0.5% BSA, 450 μL of Fixable Viability Dye 780 (eBioscience) diluted 5000 times was added to each of the cells. 25 μL each of the prepared cell suspensions was dispensed into v-bottom 96 well plates (Greiner Bio-one). Monospecific antibodies FGA0005 and FGA0007 with twice the final concentration of 0.01, 0.1, 1 μg/mL were prepared. In addition, bispecific antibodies FGA0005/CD3-TRAB and FGA0007/CD3-TRAB with twice the final concentration of 5, 10, and 20 μg/mL were prepared. 25 μL solutions containing the monospecific antibodies FGA0005 bivalent Ab and FGA0007 bivalent Ab, and the bispecific antibodies FGA0005/CD3-TRAB and FGA0007/CD3-TRAB prepared at a double concentration were added to the v-bottom 96 well plates, and allowed to stand at 4° C. for 30 minutes. After the cells were washed with FACS/PBS, Goat anti-Human IgG Fc Cross-Adsorbed Secondary Antibody, Dylight 650 Conjugate (Invitrogen) diluted 100-fold with FACS/PBS was added at 50 μL each and left to stand at 4° C. for 30 minutes. Cells were washed with FACS/PBS and then analyzed by flow cytometry.
B1: no binding (tested: 0.01, 0.1, 1 µg/mL).
B2: no binding (tested: 5, 10, and 20 µg/mL).
B3: no binding (tested: 5, 10, and 20 µg/mL).
B4: no binding (tested: 0.01, 0.1, 1 µg/mL).
